Experimental data taken from US20240173442A1, “COMBINATION THERAPY” (Hoffmann-La Roche Inc., priority 2021, published 2024).

Experiments:
[1] = tested on: SC BxPC3 tumors; test: Protocol 185: biodistribution of 212Pb-DOTAM after CEA-split-DOTAM-VH/VL targeting T84.66 or CH1A1A; type: in vivo, SCID mice; details: 6 hours after injection
Protocol: (§1) The in vivo distribution of ^212Pb-DOTAM was assessed 6 hours after the radioactive injection.
(§2) Solid xenografts were established in each SCID mouse on study day 0 by SC injection of 5×10^6 cells (passage 27) in RPMI/Matrigel into the right flank. Twenty-two days after tumor cell injection, mice were sorted into experimental groups with an average tumor volume of 224 mm^3. The ^212Pb-DOTAM was injected on day 28 after inoculation, at which point the average tumor volume had reached 385 mm^3.
All mice were sacrificed and necropsied 6 hours after injection of ^212Pb-DOTAM, and the following organs and tissues harvested for measurement of radioactive content: blood, skin, spleen, pancreas, kidneys, liver, muscle, tail, and tumor. Collected tumors were split in two pieces: one was measured for radioactive content, and the other put in a cryomold containing Tissue-Tek® optimum cutting temperature (OCT) embedding medium, and put on dry ice for rapid freezing. Frozen samples in OCT were maintained at −80° C. before cryosectioning, immunofluorescence staining, and analysis using a Zeiss Axio Scope.A1 modular microscope.

[2] = tested on: SC BxPC3 tumors; test: Protocol 189: biodistribution of 212Pb-DOTAM after bi-paratopic (T84.66 and CH1A1A) CEA-split-DOTAM-VH/VL pairs; type: in vivo, SCID mice; details: 6 hours after injection
Protocol: This bi-paratopic combination precludes formation of the full Pb-DOTAM binder on soluble CEA that only expresses one of the two epitopes (e.g. T84.66), thereby mitigating potential adverse effects thereof, such as increased circulating radioactivity and associated radiation-induced toxicity, and decreased efficacy from competition with off-tumor targets.
as §1
as §2, with “31)” for “27)”, “Fourteen” for “Twenty-two”, “343” for “224”, “22” for “28”, “inoculation;” for “inoculation, at which point”, “557 mm^3 on day 21.” for “385 mm^3.”
All mice were sacrificed and necropsied 6 hours after injection of ^212Pb-DOTAM, and the following organs and tissues harvested for measurement of radioactive content: blood, skin, spleen, pancreas, kidneys, liver, muscle, tail, and tumor.

B1: CH1A1A: CEA-split-DOTAM-VH/VL pair targeting CH1A1A: P1AF0171 (VH-AST) plus P1AD8592 (VL) (antibody, V domains shown)
VH: QVQLVQSGAEVKKPGASVKVSCKASGYTFTEFGMNWVRQAPGQGLEWMGWINTKTGEATYVEEFKGRVTFTTDTSTSTAYMELRSLRSDDTAVYYCARWDFAYYVEAMDYWGQGTTVTVSS
VL: DIQMTQSPSSLSASVGDRVTITCKASAAVGTYVAWYQQKPGKAPKLLIYSASYRKRGVPSRFSGSGSGTDFTLTISSLQPEDFATYYCHQYYTYPLFTFGQGTKLEIK
modifications: split DOTAM-binding domains and constant regions lack entries
- tumor accumulation of ^212Pb [1]: 40 % ID/g
- tumor accumulation of ^212Pb [2]: 37 % ID/g
